This assay deals with His6-SUMO-NOT7 (human) (UniProt Q9UIV1). The experiment in a line: mass photometry.

From PMC12255788 come the findings set out here.

Chain of His6-SUMO-NOT7 (human) (Q9UIV1 whole entry): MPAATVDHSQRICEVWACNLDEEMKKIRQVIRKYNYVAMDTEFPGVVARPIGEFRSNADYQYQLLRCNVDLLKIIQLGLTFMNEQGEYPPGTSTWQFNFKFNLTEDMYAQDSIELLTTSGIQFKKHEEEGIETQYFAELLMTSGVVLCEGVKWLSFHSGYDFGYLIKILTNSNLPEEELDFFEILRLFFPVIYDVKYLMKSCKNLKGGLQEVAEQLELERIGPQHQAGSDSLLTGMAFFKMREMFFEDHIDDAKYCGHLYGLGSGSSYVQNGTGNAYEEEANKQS

For “His6-PieF (from UniProt A0AAN5PHN6) (natural protein)”, the stoichiometry N was found to be 1.
